Data as given in the supplement of paper PMC10126150.
± gives the standard deviation of the averaged measurements.

Each sequence was assayed on ATP (assay: switch fluorescence ratio, 500 uM ATP over buffer (Cy3 cluster intensity, sum of 5 cycles each) (fold (ratio)); higher = stronger signal-on switching upon ATP binding; sequences stand for … in TCGTCGGCAGCGTCAGATGTGTATAAGAGACAGTTTTTTTTTTTTTTTTTTTTTTTTT…TC). Details: aptamer strand: ATP DNA aptamer (quencher-CACCTGGGGGAGTATTGCGGAGGAAGG + anchor), 100 nM annealed; ATP concentration: 500 uM.
Outline: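 Five buffer/ATP imaging cycles were run on Cy3-labelled switching-strand clusters on a modified Illumina MiSeq flow-cell, with NaOH stripping and re-annealing between cycles. In each cycle, clusters annealed to 100 nM quencher-labelled ATP aptamer were imaged in selection buffer, then after 15 min with 500 uM ATP at 22 °C. Per cluster, the fluorescence ratio is summed target-cycle over summed buffer-cycle Cy3 intensity, averaged per switch-domain sequence. Only clusters within 100-1000 RFU were kept.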
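Also: ATP exposure 15 min at 22 °C before imaging.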

Sequence | switch fluorescence ratio
TATAAATTTT | 0.992 ± 0.036
TATAACGGAT | 1.01 ± 0.025
TATAACGTCC | 1.11 ± 0.093
TATAAGAAGC | 0.993 ± 0.021
TATAAGACTA | 1.02 ± 0.021
TATAAGATGT | 0.983 ± 0.025
TATAAGCGGA | 0.993 ± 0.028
TATAAGGAGT | 1.01 ± 0.044
TATAAGGATC | 0.982 ± 0.057
TATAAGGCTA | 1.02 ± 0.028
TATAAGGGGG | 0.982 ± 0.021
TATAAGGTGT | 1.23 ± 0.11
TATAAGTTCC | 1.07 ± 0.075
TATAAGTTGT | 1 ± 0.011
TATAATAAGG | 0.9996 ± 0.0098
TATAATACAA | 1.024 ± 0.0097
TATAATCGGT | 0.975 ± 0.014
TATAATTAGG | 0.98 ± 0.027
TATAATTTAC | 1.06 ± 0.017
TATACACGGA | 1.08 ± 0.015
TATACATGCG | 1.04 ± 0.025
TATACGACAT | 1.16 ± 0.2
TATACGATTG | 0.985 ± 0.013
TATACGGCCG | 1 ± 0.0059
TATACGGGGC | 1.01 ± 0.027

Sequence | switch fluorescence ratio
TATACGTGGG | 1.03 ± 0.046
TATACGTTTT | 1.12 ± 0.14
TATACTGCAC | 1.54 ± 0.032
TATACTGCGC | 1.065 ± 0.0087
TATAGAAATA | 0.998 ± 0.017
TATAGAAGGG | 1 ± 0.053
TATAGCAAGT | 1.07 ± 0.034
TATAGCTTCG | 1 ± 0.043
TATAGCTTGG | 1 ± 0.029
TATAGGAGGT | 0.987 ± 0.062
TATAGGCCCC | 0.983 ± 0.015
TATAGGGGCT | 0.9805 ± 0.0098
TATAGTAGTG | 0.973 ± 0.014
TATAGTCTCG | 1.01 ± 0.019
TATAGTCTTC | 0.959 ± 0.027
TATAGTGCGT | 0.978 ± 0.03
TATAGTGGGA | 1 ± 0.032
TATATCTGAC | 1.16 ± 0.074
TATATGATG | 1.0194 ± 0.00035
TATATGATGC | 0.984 ± 0.029
TATATGATGG | 0.982 ± 0.024
TATATGCACT | 1.07 ± 0.024
TATATGGCGT | 0.989 ± 0.019
TATATGGGTT | 0.9849 ± 0.0062
TATATGGTGT | 1.02 ± 0.024

Sequence | switch fluorescence ratio
TATATGTGGC | 1.07 ± 0.068
TATATTAGAG | 1.01 ± 0.0023
TATATTAGCT | 1.01 ± 0.026
TATATTGCTA | 1.01 ± 0.026
TATATTTCGT | 1.03 ± 0.07
TATATTTTAG | 1.03 ± 0.021
TATATTTTGG | 1.02 ± 0.074
TATATTTTTT | 1.02 ± 0.068
TATCAAATTG | 1.02 ± 0.025
TATCAGGGGG | 0.988 ± 0.026
TATCAGTGGT | 0.997 ± 0.026
TATCATAGCC | 1.02 ± 0.027
TATCATCCGG | 0.985 ± 0.032
TATCATGTTG | 0.9987 ± 0.0047
TATCATTTAA | 1.005 ± 0.009
TATCCAACAT | 1.036 ± 0.00037
TATCCACCGT | 1.077 ± 0.0031
TATCCCTGCT | 1 ± 0.027
TATCGAAGTG | 0.993 ± 0.019
TATCGACGGC | 1.03 ± 0.05
TATCGCGAAT | 1.01 ± 0.021
TATCGGCTGG | 1.01 ± 0.025
TATCGGGATT | 1.02 ± 0.026
TATCGGGGCA | 0.9622 ± 0.007
TATCGGTCTA | 1.006 ± 0.005

Sequence | switch fluorescence ratio
TATCGGTTAT | 0.984 ± 0.013
TATCGTAAAT | 1 ± 0.029
TATCGTATTC | 0.97 ± 0.037
TATCGTGGGA | 1.01 ± 0.019
TATCGTTTAA | 0.987 ± 0.032
TATCTAAATC | 0.9967 ± 0.0063
TATCTAATGC | 1 ± 0.085
TATCTACAAT | 1.01 ± 0.02
TATCTACGGG | 1.036 ± 0.0013
TATCTTAGGC | 1.01 ± 0.027
TATCTTTAAC | 1.03 ± 0.024
TATCTTTAGT | 0.989 ± 0.015
TATCTTTCTT | 1.06 ± 0.019
TATCTTTTTC | 1.04 ± 0.084
TATGAAAGGG | 1.13 ± 0.16
TATGAAGGGA | 0.99 ± 0.021
TATGAATCAG | 0.998 ± 0.019
TATGAGGTTC | 0.983 ± 0.1
TATGATCTTT | 1.029 ± 0.0052
TATGATGCAT | 0.991 ± 0.028
TATGATGTCG | 1.01 ± 0.027
TATGATTTAA | 1.01 ± 0.016
TATGCAGTCA | 1.01 ± 0.029
TATGCCTTCG | 1.09 ± 0.05
TATGCCTTTG | 0.987 ± 0.033
